Data taken from patent US20030199671A1, “Binding molecules for Fc-region polypeptides” (priority 2001, published 2003).
Like-named read-outs stand apart in the source and are kept apart here. Positions of bridges follow the written chain, without caps; N, C: chain ends. Residues, ends and D or L forms follow the SMILES beside them.

Assays:
Assay type in all cases: binding
[1] = molecular target: IgG4 (Homo sapiens, UniProt P01861); design: all human subtypes derived from myeloma patients; purchased Calbiochem 400126; host or cells: myeloma patients; settings: for % IgG Capture - Batch Binding, Human IgG4: Table 9, immobilized peptide, 5.0 mg/ml resin load; for Human IgG4 elu pH 8.5 (% of Total Load): elution 0.1 M sodium bicarbonate buffer
Procedure, shortened: (§1)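 Read-out is A280 of unbound IgG (1.4 mg/ml extinction coefficient), with percent bound derived against non-filtered or negative controls. Targets were incubated with immobilized peptides in PBST or TBST for 1-1.5 h at room temperature. Hydrolyzed Sepharose and immobilized Protein A serve as negative and positive controls.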

[2] = tested on: goat IgG; settings: Table 11; unfractionated IgG
Procedure, shortened: (§2)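 Static binding, peptide resin + IgG, 1-1.5 h RT with shaking, PBST pH 7.2 or TBST pH 7.5. Flow-through read at A280 vs buffer blank; % bound = control minus unbound. Elution at pH 8.5 bicarbonate and/or pH 4.0 citrate, 30-60 min.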

[3] = tested on: human IgG
Procedure, shortened: as §2

[4] = tested on: bovine IgG; settings: Table 11; unfractionated IgG
Procedure, shortened: as §2

[5] = molecular target: T1, human IgG1 (Homo sapiens, UniProt P01857); settings: for % IgG Capture - Batch Binding, Human IgG1: Table 9, immobilized peptide, 5.0 mg/ml resin load; for Human IgG1 elu pH 8.5 (% of Total Load): elution 0.1 M sodium bicarbonate buffer; for Human IgG1 elu pH 4.0 (% of Total Load): elution 0.1 M sodium citrate buffer
T1 construct: all human subtypes derived from myeloma patients; purchased Calbiochem 400120; host or cells: myeloma patients
Procedure, shortened: as §2

[6] = tested on: mouse IgG
Procedure, shortened: as §2

[7] = molecular target: T2, human IgG2 (Homo sapiens, UniProt P01859); settings: for Human IgG2 elu pH 8.5 (% of Total Load): elution 0.1 M sodium bicarbonate buffer; for Human IgG2 elu pH 4.0 (% of Total Load): elution 0.1 M sodium citrate buffer
T2 construct: all human subtypes derived from myeloma patients; purchased Calbiochem 400122; host or cells: myeloma patients
Procedure, shortened: as §1

[8] = molecular target: IgG3 (Homo sapiens, UniProt P01860); design: all human subtypes derived from myeloma patients; purchased Calbiochem 400124; host or cells: myeloma patients; settings: for % IgG Capture - Batch Binding, Human IgG3: Table 9, immobilized peptide, 5.0 mg/ml resin load; for Human IgG3 elu pH 4.0 (% of Total Load): elution 0.1 M sodium citrate buffer
Procedure, shortened: as §2

[9] = Table 14, average ligand density 1.8 μM/ml

IgG3, sequence (P01860 1-377 isoform P01860-1): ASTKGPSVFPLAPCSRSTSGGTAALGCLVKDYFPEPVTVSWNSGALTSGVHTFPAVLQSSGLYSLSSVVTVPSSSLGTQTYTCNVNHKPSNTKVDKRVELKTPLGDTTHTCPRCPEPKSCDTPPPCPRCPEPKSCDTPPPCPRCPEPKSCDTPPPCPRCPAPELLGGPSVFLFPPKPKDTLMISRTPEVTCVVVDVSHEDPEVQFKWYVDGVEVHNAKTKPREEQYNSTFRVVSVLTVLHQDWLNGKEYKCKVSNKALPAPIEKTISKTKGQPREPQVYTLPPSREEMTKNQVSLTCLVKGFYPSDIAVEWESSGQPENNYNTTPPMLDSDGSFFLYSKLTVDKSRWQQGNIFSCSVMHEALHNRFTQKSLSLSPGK
T2 sequence (P01859 1-326 isoform P01859-1): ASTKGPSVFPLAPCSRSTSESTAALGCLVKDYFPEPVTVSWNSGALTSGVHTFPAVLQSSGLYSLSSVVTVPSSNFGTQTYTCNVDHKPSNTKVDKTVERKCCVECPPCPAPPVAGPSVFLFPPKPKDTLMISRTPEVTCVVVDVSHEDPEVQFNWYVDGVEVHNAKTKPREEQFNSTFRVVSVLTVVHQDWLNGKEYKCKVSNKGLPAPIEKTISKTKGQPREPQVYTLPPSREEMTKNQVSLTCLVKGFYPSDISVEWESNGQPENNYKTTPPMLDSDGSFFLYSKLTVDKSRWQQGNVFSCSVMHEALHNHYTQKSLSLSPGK
IgG4, sequence (P01861 1-327 isoform P01861-1): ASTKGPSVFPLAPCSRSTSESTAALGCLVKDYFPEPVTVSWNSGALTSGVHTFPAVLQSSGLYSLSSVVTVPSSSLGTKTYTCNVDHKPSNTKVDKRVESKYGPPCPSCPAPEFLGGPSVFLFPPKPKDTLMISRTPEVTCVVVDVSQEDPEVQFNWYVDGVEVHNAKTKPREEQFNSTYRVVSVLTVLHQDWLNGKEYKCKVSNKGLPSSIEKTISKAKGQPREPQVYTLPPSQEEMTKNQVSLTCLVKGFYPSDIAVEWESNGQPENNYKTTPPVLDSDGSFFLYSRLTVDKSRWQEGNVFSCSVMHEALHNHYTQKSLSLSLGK
T1 sequence (P01857 1-330 isoform P01857-1): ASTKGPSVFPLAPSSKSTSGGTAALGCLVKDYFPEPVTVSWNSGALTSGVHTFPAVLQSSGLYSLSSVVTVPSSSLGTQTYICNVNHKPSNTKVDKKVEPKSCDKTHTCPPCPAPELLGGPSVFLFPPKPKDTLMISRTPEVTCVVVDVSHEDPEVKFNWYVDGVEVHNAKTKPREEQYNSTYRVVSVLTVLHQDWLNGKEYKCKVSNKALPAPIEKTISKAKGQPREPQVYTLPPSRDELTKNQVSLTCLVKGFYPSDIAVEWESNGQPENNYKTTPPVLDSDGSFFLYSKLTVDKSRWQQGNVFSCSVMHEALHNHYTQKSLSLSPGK

CC(=O)NCC(=O)N[C@@H](CC(=O)O)C(=O)N[C@@H](CC(=O)O)C(=O)N[C@@H](CC(=O)O)C(=O)N[C@@H](Cc1c[nH]cn1)C(=O)N[C@H]1CSSC[C@@H](C(=O)N2CCC[C@H]2C(=O)N[C@@H](Cc2c[nH]cn2)C(=O)NCC(=O)N[C@@H](CCC(=O)O)C(=O)N2CCC[C@H]2C(=O)NCC(=O)N2CCC[C@H]2C(=O)N[C@@H](CCC(=O)O)C(=O)NCC(=O)NCC(=O)NCC(=O)N[C@@H](CCCCN)C(N)=O)NC(=O)[C@H](CCC(=O)O)NC(=O)[C@H](CO)NC(=O)[C@H](CC(N)=O)NC(=O)[C@H](Cc2ccccc2)NC(=O)[C@H](Cc2c[nH]c3ccccc23)NC(=O)[C@H](CCC(=O)O)NC(=O)[C@H](CCCNC(=N)N)NC(=O)[C@H](Cc2ccccc2)NC(=O)[C@H](Cc2c[nH]c3ccccc23)NC(=O)[C@H](Cc2ccc(O)cc2)NC1=O [DX252] (Ac-GDDDHCYWFREWFNSECPHGEPGPEGGGK-NH2; disulfide 6-17 (inferred))
% IgG Capture - Batch Binding, Human IgG4 [1]: 6% | Human IgG4 bdg % (% of Total Load) ([1]; Table 10, batch binding): 14% | Human IgG4 elu pH 8.5 (% of Total Load) ([1]; Table 10): 4% | % IgG Capture - Batch Binding, Goat IgG [2]: 0% | % IgG Capture - Batch Binding, Human IgG ([3]; Table 11, unfractionated IgG): 20% | % IgG Capture - Batch Binding, Bovine IgG [4]: 0% | % IgG Capture - Batch Binding, Human IgG1 [5]: 34% | Human IgG1 bdg % (% of Total Load) ([5]; Table 10, batch binding): 37% | Human IgG1 elu pH 8.5 (% of Total Load) ([5]; Table 10): 19% | Human IgG1 elu pH 4.0 (% of Total Load) ([5]; Table 10): 30% | % IgG Capture - Batch Binding, Mouse IgG ([6]; Table 11, unfractionated IgG): 1% | % IgG Capture - Batch Binding, Human IgG2 ([7]; Table 9, immobilized peptide, 5.0 mg/ml resin load): 24% | Human IgG2 bdg % (% of Total Load) ([7]; Table 10, batch binding): 37% | Human IgG2 elu pH 8.5 (% of Total Load) ([7]; Table 10): 8% | Human IgG2 elu pH 4.0 (% of Total Load) ([7]; Table 10): 10% | % IgG Capture - Batch Binding, Human IgG3 [8]: 35% | Human IgG3 bdg % (% of Total Load) ([8]; Table 10, batch binding): 44% | Human IgG3 elu pH 8.5 (% of Total Load) ([8]; Table 10, elution 0.1 M sodium bicarbonate buffer, pH 8.5): 8% | Human IgG3 elu pH 4.0 (% of Total Load) ([8]; Table 10): 5%

Ac-GDRRACSRDWSGALVWCAGHEPGPEGGGK-NH2 (not fully specified (bridges); printed as Ac-GDRRACSRDWSGALVWCAGHEPGPEGGGK-NH2; cysteine pairing not given here) [DX253]
% IgG Capture - Batch Binding, Human IgG4 [1]: 33% | Human IgG4 elu pH 8.5 (% of Total Load) ([1]; Table 10): 22% | hIgG4 elution pH 2.5 (% of Total Load) ([1]; Table 13): 49% | hIgG4 elution pH 3.0 (% of Total Load) ([1]; Table 13): 49% | hIgG4 elution pH 3.5 (% of Total Load) ([1]; Table 13): 53% | hIgG4 elution pH 4.5 (% of Total Load) ([1]; Table 13): 23% | hIgG4 elution pH 5.5 (% of Total Load) ([1]; Table 13): 4% | hIgG4 elution pH 9.0 (% of Total Load) ([1]; Table 13): 45% | hIgG4 elution pH 9.5 (% of Total Load) ([1]; Table 13): 62% | Batch Binding (% Capture of Total Load) hIgG4 ([1]; peptide immobilized on NHS activated sepharose 4 fast flow, target ligand density 2.0 μmole/ml, batch filterplate, hIgG4): 58% | % IgG Capture - Batch Binding, Human IgG ([3]; Table 11, unfractionated IgG): 54% | % IgG Capture - Batch Binding, Human IgG [3, 9]: 71% | Batch Binding (% Capture of Total Load) hIgG ([3]; peptide immobilized on NHS activated sepharose 4 fast flow, target ligand density 2.0 μmole/ml, batch filterplate, hIgG): 79% | % IgG Capture - Batch Binding, Human IgG1 [5]: 58% | Human IgG1 elu pH 8.5 (% of Total Load) ([5]; Table 10): 44% | Human IgG1 elu pH 4.0 (% of Total Load) ([5]; Table 10): 14% | hIgG1 elution pH 2.5 (% of Total Load) ([5]; Table 13): 78% | hIgG1 elution pH 3.0 (% of Total Load) ([5]; Table 13): 75% | hIgG1 elution pH 3.5 (% of Total Load) ([5]; Table 13): 54% | hIgG1 elution pH 4.5 (% of Total Load) ([5]; Table 13): 55% | hIgG1 elution pH 5.5 (% of Total Load) ([5]; Table 13): 8% | hIgG1 elution pH 9.0 (% of Total Load) ([5]; Table 13): 44% | hIgG1 elution pH 9.5 (% of Total Load) ([5]; Table 13): 45% | Batch Binding (% Capture of Total Load) hIgG1 ([5]; peptide immobilized on NHS activated sepharose 4 fast flow, target ligand density 2.0 μmole/ml, batch filterplate, hIgG1): 88% | % IgG Capture - Batch Binding, Mouse IgG ([6]; Table 11, unfractionated IgG): 2% | % IgG Capture - Batch Binding, Mouse IgG [6, 9]: 2% | Human IgG2 elu pH 8.5 (% of Total Load) ([7]; Table 10): 32% | Human IgG2 elu pH 4.0 (% of Total Load) ([7]; Table 10): 12% | hIgG2 elution pH 2.5 (% of Total Load) ([7]; Table 13): 78% | hIgG2 elution pH 3.0 (% of Total Load) ([7]; Table 13): 69% | hIgG2 elution pH 3.5 (% of Total Load) ([7]; Table 13): 55% | hIgG2 elution pH 4.5 (% of Total Load) ([7]; Table 13): 31% | hIgG2 elution pH 9.0 (% of Total Load) ([7]; Table 13): 42% | hIgG2 elution pH 9.5 (% of Total Load) ([7]; Table 13): 47% | Batch Binding (% Capture of Total Load) hIgG2 ([7]; peptide immobilized on NHS activated sepharose 4 fast flow, target ligand density 2.0 μmole/ml, batch filterplate, hIgG2): 80% | % IgG Capture - Batch Binding, Human IgG3 [8]: 7% | Human IgG3 elu pH 4.0 (% of Total Load) ([8]; Table 10): 5%
